# Substitutions are numbered along the chain they refer to. Names may count otherwise.
# B1: APOL1 G0 (natural protein)
# chain: EEAGARVQQNVPSGTDTGDPQSKPLGDWAAGTMDPESSIFIEDAIKYFKEKVSTQNLLLLLTDNEAWNGFVAAAELPRNEADELRKALDNLARQMIMKDKNWHDKGQQYRNWFLKEFPRLKSKLEDNIRRLRALADGVQKVHKGTTIANVVSGSLSISSGILTLVGMGLAPFTEGGSLVLLEPGMELGITAALTGITSSTIDYGKKWWTQAQAHDLVIKSLDKLKEVKEFLGENISNFLSLAGNTYQLTRGIGKDIRALRRARANLQSVPHASASRPRVTEPISAESGEQVERVNEPSILEMSRGVKLTDVAPVSFFLVLDVVYLVYESKHLHEGAKSETAEELKKVAQELEEKLNILNNNYKILQADQEL
# B2: APOL1 A375C (natural protein, human, UniProt O14791 28-398, looked up)
# chain: B1 chain with A348C
# notes: Apolipoprotein L-I (APOL1) G0, human, aa 28-398 (without the signal peptide), most common isoform K150, I228, K255 (GenBank AAI12944.2); Cysteine at the a position of the C-terminal leucine zipper (ZIP) domain; APOL1 has no endogenous cysteines; Stored with 1 mM DTT in the SEC buffer; also called apolipoprotein L-I A375C; source: E. coli BL21-DE3-RIPL, purified (nickel-chelate chromatography, …)
# B3: APOL1 A363C (natural protein, human, UniProt O14791 28-398, looked up)
# chain: B1 chain with A336C
# notes: Apolipoprotein L-I (APOL1) G0, human, aa 28-398, isoform K150, I228, K255 (GenBank AAI12944.2); Cysteine in the predicted turn region between the pore-lining region and the ZIP domain, outside the ZIP domain; source: E. coli BL21-DE3-RIPL, purified (nickel-chelate chromatography, SEC); not shown: His6, N-terminal, kept
# B4: APOL1 LZA 1 (natural protein)
# chain: B1 chain with L344A
# B5: APOL1 LZA A375C (natural protein, human, UniProt O14791 28-398, looked up)
# chain: B1 chain with L344A, A348C, L351A, L358A, L365A
# notes: Apolipoprotein L-I (APOL1) G0, human, aa 28-398, isoform K150, I228, K255 (GenBank AAI12944.2), every d position leucine of the ZIP domain to alanine plus A375C; Disulfide dimers were already present in the starting material (formed during purification); source: E. coli BL21-DE3-RIPL, purified (nickel-chelate chromatography, SEC); not shown: His6, N-terminal, kept
# Columns and labels:
# APOL1 G0 (human) = APOL1 G0 (human) (UniProt O14791)
# [1] = biological target: the molecule itself; test: cross-linking; disulfide trapping between substituted cysteines, no membranes; protein (~0.159 uM) in 0.2 ml buffer (5 mM succinate, 5 mM Hepes, 0.5 mM KCl, 5 mM CaCl2), room temperature, 1 h at pH 5.6 followed by 1 h at pH 7.2; nonreducing SDS-PAGE, silver stain
# APOL1 LZA 1 (human) = APOL1 LZA 1 (human) (UniProt O14791)
# [2] = biological target: the molecule itself; test: cross-linking; untreated control protein (lane c): thawed on ice from -80 °C and immediately diluted into SDS sample buffer; nonreducing SDS-PAGE, silver stain
binder,measurement,setting,value
B1,"trypanosome lysis (T. b. brucei, 24 h), IC50",APOL1 G0 (human),0.125 µg/mL
B2,stoichiometry N,[1],2
B3,binding result,[1],binds
B4,"trypanosome lysis (T. b. brucei, 24 h), IC50",APOL1 LZA 1 (human),0.6 µg/mL
B5,stoichiometry N,[2],2

# Reference: PMC8446801, “Coiled-coil binding of the leucine zipper domains of APOL1 is necessary for the open cation channel conformation” (The Journal of Biological Chemistry, 2021)
